According to doi:10.1101/255976:

What was measured:
BRCA1 = BRCA1 (human, UniProt P38398 1-1863); assay: EMSA
BRCA1;BARD1 = BRCA1;BARD1 (human;human, UniProt P38398;Q99728 1-1863;1-777, |); assay: EMSA

B1: 50 bp DNA:RNA hybrid X12-3 DNA/X12-4C RNA (DNA:RNA)
DNA: GACGTCATAGACGATTACATTGCTAGGACATGCTGTCTAGAGACTATCGC
RNA: GCGAUAGUCUCUAGACAGCAUGUCCUAGCAAUGUAAUCGUCUAUGACGUC
B1: binds (BRCA1); binds (BRCA1;BARD1).
